Results: IntAct's records for PubMed 20581824

Experiments:
[1] = biological target: nr1d1_human NR1D1 (UniProt P20393)
[2] = biological target: nr1d1_human NR1D1 (UniProt P20393); remark: listed apart in the source

Sequence of nr1d1_human NR1D1 (P20393 whole entry): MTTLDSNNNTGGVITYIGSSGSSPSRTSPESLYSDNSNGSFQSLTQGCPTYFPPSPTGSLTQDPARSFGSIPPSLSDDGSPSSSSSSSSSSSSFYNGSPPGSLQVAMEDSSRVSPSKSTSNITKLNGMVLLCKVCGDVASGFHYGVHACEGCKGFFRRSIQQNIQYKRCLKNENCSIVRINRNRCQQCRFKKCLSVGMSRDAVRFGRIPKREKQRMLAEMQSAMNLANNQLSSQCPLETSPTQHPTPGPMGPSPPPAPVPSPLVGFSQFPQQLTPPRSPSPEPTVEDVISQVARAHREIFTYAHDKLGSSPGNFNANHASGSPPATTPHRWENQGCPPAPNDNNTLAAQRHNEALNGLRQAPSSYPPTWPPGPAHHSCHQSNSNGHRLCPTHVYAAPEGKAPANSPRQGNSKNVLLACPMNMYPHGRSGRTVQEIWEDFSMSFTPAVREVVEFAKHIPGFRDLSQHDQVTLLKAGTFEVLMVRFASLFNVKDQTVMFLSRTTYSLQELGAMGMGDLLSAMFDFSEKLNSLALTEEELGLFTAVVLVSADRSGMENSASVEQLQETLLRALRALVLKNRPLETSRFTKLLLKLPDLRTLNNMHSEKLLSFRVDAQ

Row | effect of a mutation on the interaction [1] | effect of a mutation on the interaction [2] | Substance
1 | – | disrupting interaction | Nuclear receptor corepressor 1 (Homo sapiens), O75376 I2055A
2 | – | disrupting interaction | Nuclear receptor corepressor 1 (Homo sapiens), O75376 I2058A
3 | – | disrupting interaction | Nuclear receptor corepressor 1 (Homo sapiens), O75376 I2058A;I2059A
4 | – | disrupting interaction | Nuclear receptor corepressor 1 (Homo sapiens), O75376 I2059A

The remaining lines, values behind:

Row | Substance | effect of a mutation on the interaction [1] | effect of a mutation on the interaction [2]
5 | Nuclear receptor corepressor 1 (Homo sapiens), O75376 H2046A | decreasing interaction | –
6 | Nuclear receptor corepressor 1 (Homo sapiens), O75376 H2054A | disrupting interaction | –
7 | Nuclear receptor corepressor 1 (Homo sapiens), O75376 L2048A | decreasing interaction | –
8 | Nuclear receptor corepressor 1 (Homo sapiens), O75376 L2051A | decreasing interaction | –
